The record followed here is PMC9411592 (2022).

In experiment [1] the target is L-TGF-β1 C4S/R249A (the 'WT' of the SPR assay) (human). The experiment in a line: SPR. For orientation: Surface plasmon resonance follows binding to a sensor surface in real time, without labels.
The target is the same in experiment [2]. In words: SPR. This is another data set of the same source.

Changes are numbered by the printed parent chain. Like-named read-outs stand apart in the source and are kept apart here.

L-TGF-β1 C4S/R249A (the 'WT' of the SPR assay) (human), sequence (chain, as listed by the source R249A): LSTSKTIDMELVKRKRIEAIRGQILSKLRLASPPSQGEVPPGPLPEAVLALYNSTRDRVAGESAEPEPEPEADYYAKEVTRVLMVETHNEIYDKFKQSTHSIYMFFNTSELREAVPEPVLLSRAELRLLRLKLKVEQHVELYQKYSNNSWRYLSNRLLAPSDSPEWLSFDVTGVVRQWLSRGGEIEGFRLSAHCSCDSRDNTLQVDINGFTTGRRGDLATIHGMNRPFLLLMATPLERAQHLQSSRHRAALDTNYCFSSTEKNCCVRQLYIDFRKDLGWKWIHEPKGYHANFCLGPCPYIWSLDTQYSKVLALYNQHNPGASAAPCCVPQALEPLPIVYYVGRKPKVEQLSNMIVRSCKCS

B1: integrin αVβ8 headpiece (αV residues 1-594, β8 residues 1-456) (complex)
chain 1: FNLDVDSPAEYSGPEGSYFGFAVDFFVPSASSRMFLLVGAPKANTTQPGIVEGGQVLKCDWSSTRRCQPIEFDATGNRDYAKDDPLEFKSHQWFGASVRSKQDKILACAPLYHWRTEMKQEREPVGTCFLQDGTKTVEYAPCRSQDIDADGQGFCQGGFSIDFTKADRVLLGGPGSFYWQGQLISDQVAEIVSKYDPNVYSIKYNNQLATRTAQAIFDDSYLGYSVAVGDFNGDGIDDFVSGVPRAARTLGMVYIYDGKNMSSLYNFTGEQMAAYFGFSVAATDINGDDYADVFIGAPLFMDRGSDGKLQEVGQVSVSLQRASGDFQTTKLNGFEVFARFGSAIAPLGDLDQDGFNDIAIAAPYGGEDKKGIVYIFNGRSTGLNAVPSQILEGQWAARSGCPPSFGYSMKGATDIDKNGYPDLIVGAFGVDRAILYRARPVITVNAGLEVYPSILNQDNKTCSLPGTALKVSCFNVRFCLKADGKGVLPRKLNFQVELLLDKLKQKGAIRRALFLYSRSPSHSKNMTISRGGLMQCEELIAYLRDESEFRDKLTPITIFMEYRLDYRTAADTTGLQPILNQFTPANISRQAHILLD
chain 2: EDNRCASSNAASCARCLALGPECGWCVQEDFISGGSRSERCDIVSNLISKGCSVDSIEYPSVHVIIPTENEINTQVTPGEVSIQLRPGAEANFMLKVHPLKKYPVDLYYLVDVSASMHNNIEKLNSVGNDLSRKMAFFSRDFRLGFGSYVDKTVSPYISIHPERIHNQCSDYNLDCMPPHGYIHVLSLTENITEFEKAVHRQKISGNIDTPEGGFDAMLQAAVCESHIGWRKEAKRLLLVMTDQTSHLALDSKLAGIVCPNDGNCHLKNNVYVKSTTMEHPSLGQLSEKLIDNNINVIFAVQGKQFHWYKDLLPLLPGTIAGEIESKAANLNNLVVEAYQKLISEVKVQVENQVQGIYFNITAICPDGSRKPGMEGCRNVTSNDEVLFNVTVTMKKCDVTGGKNYAIIKPIGFNETAKIHIHRNCSCQCEDNRGPKGKCVDETFLDSKCFQCDENK
For orientation: koff means a measure of how fast the partners let go of each other. Read a low koff as slow dissociation. B1: the koff in experiment [1] was 0.00109 s⁻¹.

B2: integrin αVβ8-6DLL headpiece (the disulfide-linked loop of β8 substituted by that of β6) (complex)
chain 1: FNLDVDSPAEYSGPEGSYFGFAVDFFVPSASSRMFLLVGAPKANTTQPGIVEGGQVLKCDWSSTRRCQPIEFDATGNRDYAKDDPLEFKSHQWFGASVRSKQDKILACAPLYHWRTEMKQEREPVGTCFLQDGTKTVEYAPCRSQDIDADGQGFCQGGFSIDFTKADRVLLGGPGSFYWQGQLISDQVAEIVSKYDPNVYSIKYNNQLATRTAQAIFDDSYLGYSVAVGDFNGDGIDDFVSGVPRAARTLGMVYIYDGKNMSSLYNFTGEQMAAYFGFSVAATDINGDDYADVFIGAPLFMDRGSDGKLQEVGQVSVSLQRASGDFQTTKLNGFEVFARFGSAIAPLGDLDQDGFNDIAIAAPYGGEDKKGIVYIFNGRSTGLNAVPSQILEGQWAARSGCPPSFGYSMKGATDIDKNGYPDLIVGAFGVDRAILYRARPVITVNAGLEVYPSILNQDNKTCSLPGTALKVSCFNVRFCLKADGKGVLPRKLNFQVELLLDKLKQKGAIRRALFLYSRSPSHSKNMTISRGGLMQCEELIAYLRDESEFRDKLTPITIFMEYRLDYRTAADTTGLQPILNQFTPANISRQAHILL
chain 2: B1 chain 2 with D171S, Y172I, N173P, L174Y, D175F
In the case of B2, the off-rate constant (koff) in experiment [2] was 0.000142 s⁻¹.

B3: αVβ8-IgG1 Fc (heterotetramer of αVβ8 linked by the IgG1 Fc fragment on the C-terminus of β8) (Fc fusion)
chain 1: B2 chain 1
chain 2: B1 chain 2
In experiment [1], B3 gave an off-rate (koff) of 7.6e-05 s⁻¹.

B4: integrin αVβ6 headpiece (αV residues 1-594, β6 residues 1-474) (complex)
chain 1: B1 chain 1
chain 2: HVQGGCALGGAETCEDCLLIGPQCAWCAQENFTHPSGVGERCDTPANLLAKGCQLNFIENPVSQVEILKNKPLSVGRQKNSSDIVQIAPQSLILKLRPGGAQTLQVHVRQTEDYPVDLYYLMDLSASMDDDLNTIKELGSRLSKEMSKLTSNFRLGFGSFVEKPVSPFVKTTPEEIANPCSSIPYFCLPTFGFKHILPLTNDAERFNEIVKNQKISANIDTPEGGFDAIMQAAVCKEKIGWRNDSLHLLVFVSDADSHFGMDSKLAGIVCPNDGLCHLDSKNEYSMSTVLEYPTIGQLIDKLVQNNVLLIFAVTQEQVHLYENYAKLIPGATVGLLQKDSGNILQLIISAYEELRSEVELEVLGDTEGLNLSFTAICNNGTLFQHQKKCSHMKVGDTASFSVTVNIPHCERRSRHIIIKPVGLGDALELLVSPECNCDCQKEVEVNSSKCHHGNGSFQCGVCACHPGHMGPRCE
As for B4, in experiment [2], the off-rate constant (koff) was 0.000107 s⁻¹.

B5: integrin αVβ6-8DLL headpiece (the disulfide-linked loop of β6 substituted by that of β8) (complex)
chain 1: B1 chain 1
chain 2: B4 chain 2 with S182D, I183Y, P184N, Y185L, F186D
In experiment [2], B5 gave a dissociation rate constant (koff) of 0.00121 s⁻¹.
